Assays:
[1] = cycloheximide chase, degradation rate; details: glycan lost; control: LATS1-WT
[2] = HA-Ub co-transfection, MG-132, anti-MYC IP, blot; details: glycan lost; control: LATS1-WT
[3] = Nub-Gal4 overexpression, wing area; details: glycan lost; control: Nub > LATS1, standard medium
[4] = Nub-Gal4 overexpression, wing area, no-glucose medium; details: glycan lost; control: Nub > LATS1, glucose-free medium

Protein	degradation_or_half_life [1]	other: ubiquitination [2]	other: Drosophila wing size [3]	other: Drosophila wing size [4]
LATS1: 4A (protein) parent chain: MKRSEKPEGYRQMRPKTFPASNYTVSSRQMLQEIRESLRNLSKPSDAAKAEHNMSKMSTEDPRQVRNPPKFGTHHKALQEIRNSLLPFANETNSSRSTSEVNPQMLQDLQAAGFDEDMVIQALQKTNNRSIEAAIEFISKMSYQDPRREQMAAAAARPINASMKPGNVQQSVNRKQSWKGSKESLVPQRHGPPLGESVAYHSESPNSQTDVGRPLSGSGISAFVQAHPSNGQRVNPPPPPQVRSVTPPPPPRGQTPPPRGTTPPPPSWEPNSQTKRYSGNMEYVISRISPVPPGAWQEGYPPPPLNTSPMNPPNQGQRGISSVPVGRQPIIMQSSSKFNFPSGRPGMQNGTGQTDFMIHQNVVPAGTVNRQPPPPYPLTAANGQSPSALQTGGSAAPSSYTNGSIPQSMMVPNRNSHNMELYNISVPGLQTNWPQSSSAPAQSSPSSGHEIPTWQPNIPVRSNSFNNPLGNRASHSANSQPSATTVTAITPAPIQQPVKSMRVLKPELQTALAPTHPSWIPQPIQTVQPSPFPEGTASNVTVMPPVAEAPNYQGPPPPYPKHLLHQNPSVPPYESISKPSKEDQPSLPKEDESEKSYENVDSGDKEKKQITTSPITVRKNKKDEERRESRIQSYSPQAFKFFMEQHVENVLKSHQQRLHRKKQLENEMMRVGLSQDAQDQMRKMLCQKESNYIRLKRAKMDKSMFVKIKTLGIGAFGEVCLARKVDTKALYATKTLRKKDVLLRNQVAHVKAERDILAEADNEWVVRLYYSFQDKDNLYFVMDYIPGGDMMSLLIRMGIFPESLARFYIAELTCAVESVHKMGFIHRDIKPDNILIDRDGHIKLTDFGLCTGFRWTHDSKYYQSGDHPRQDSMDFSNEWGDPSSCRCGDRLKPLERRAARQHQRCLAHSLVGTPNYIAPEVLLRTGYTQLCDWWSVGVILFEMLVGQPPFLAQTPLETQMKVINWQTSLHIPPQAKLSPEASDLIIKLCRGPEDRLGKNGADEIKAHPFFKTIDFSSDLRQQSASYIPKITHPTDTSNFDPVDPDKLWSDDNEEENVNDTLNGWYKNGKHPEHAFYEFTFRRFFDDNGYPYNYPKPIEYEYINSQGSEQQSDEDDQNTGSEIKNRDLVYV	decreases	decreases		
LATS1: LATS1-4A (protein) parent chain: MKRSEKPEGYRQMRPKTFPASNYTVSSRQMLQEIRESLRNLSKPSDAAKAEHNMSKMSTEDPRQVRNPPKFGTHHKALQEIRNSLLPFANETNSSRSTSEVNPQMLQDLQAAGFDEDMVIQALQKTNNRSIEAAIEFISKMSYQDPRREQMAAAAARPINASMKPGNVQQSVNRKQSWKGSKESLVPQRHGPPLGESVAYHSESPNSQTDVGRPLSGSGISAFVQAHPSNGQRVNPPPPPQVRSVTPPPPPRGQTPPPRGTTPPPPSWEPNSQTKRYSGNMEYVISRISPVPPGAWQEGYPPPPLNTSPMNPPNQGQRGISSVPVGRQPIIMQSSSKFNFPSGRPGMQNGTGQTDFMIHQNVVPAGTVNRQPPPPYPLTAANGQSPSALQTGGSAAPSSYTNGSIPQSMMVPNRNSHNMELYNISVPGLQTNWPQSSSAPAQSSPSSGHEIPTWQPNIPVRSNSFNNPLGNRASHSANSQPSATTVTAITPAPIQQPVKSMRVLKPELQTALAPTHPSWIPQPIQTVQPSPFPEGTASNVTVMPPVAEAPNYQGPPPPYPKHLLHQNPSVPPYESISKPSKEDQPSLPKEDESEKSYENVDSGDKEKKQITTSPITVRKNKKDEERRESRIQSYSPQAFKFFMEQHVENVLKSHQQRLHRKKQLENEMMRVGLSQDAQDQMRKMLCQKESNYIRLKRAKMDKSMFVKIKTLGIGAFGEVCLARKVDTKALYATKTLRKKDVLLRNQVAHVKAERDILAEADNEWVVRLYYSFQDKDNLYFVMDYIPGGDMMSLLIRMGIFPESLARFYIAELTCAVESVHKMGFIHRDIKPDNILIDRDGHIKLTDFGLCTGFRWTHDSKYYQSGDHPRQDSMDFSNEWGDPSSCRCGDRLKPLERRAARQHQRCLAHSLVGTPNYIAPEVLLRTGYTQLCDWWSVGVILFEMLVGQPPFLAQTPLETQMKVINWQTSLHIPPQAKLSPEASDLIIKLCRGPEDRLGKNGADEIKAHPFFKTIDFSSDLRQQSASYIPKITHPTDTSNFDPVDPDKLWSDDNEEENVNDTLNGWYKNGKHPEHAFYEFTFRRFFDDNGYPYNYPKPIEYEYINSQGSEQQSDEDDQNTGSEIKNRDLVYV			decreases	no change

— publication PMC12797046
